Test [1] concerns the target T1, Corticotropin-releasing hormone (CRH).
T1 construct: 41-amino acid peptide derived from a 196-amino acid preprohormone (Genbank EAW86897.1); also called CRF; CRF peptide
T1 peptide: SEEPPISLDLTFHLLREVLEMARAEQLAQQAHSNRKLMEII
Put plainly: direct CRH ELISA with lysate of transfected HEK 293t cells. On the procedure: ScFv constructs offer the advantage of being able to be delivered to the brain via AAV vectors. DNA constructs for ScFv's composed of the heavy and light variable regions of Antibody A and Antibody B, connected by a linker peptide, were generated. The amino acid sequences of the Antibody A and Antibody B scFvs are set forth in SEQ ID NOs: 22 and 23, respectively. DNA constructs were then transfected into Human Embryonic Kidney (HEK) 293t cells and incubated 48 hours. Cells were then lysed and analyzed for CRH binding via a direct CRH ELISA.

Test [2] shares this target. Put plainly: method not stated (FIG. 2, affinity of monoclonal antibodies to CRH).
For test [3] the target is unchanged. Kind of test: Octet red BLI, CRF peptide against Antibody B at 300 nM to 0.412 nM; same value printed in all seven rows of the table [upper table, CRF peptide].
The target is the same in test [4]. Kind of test: Octet red BLI, CRF peptide against Antibody B at 300 nM to 0.412 nM; kdis(1/s), same value printed in all seven rows of the table [upper table, CRF peptide].

B1: ScFv comprising the heavy and light variable regions of Antibody B (scFv)
scFv: DEVQLQQSGPELVKPGVSMKISCKASGYSFTDSTMNWVKQSHGKNLEWIGLIHPDNGGTIYNQKFKGKATLTVHKSSSTAYMELLSLTSEDSAVYYCANGFAYWGQGTLVTVSAAKTTPPSVYPLAPGSAAGGGGSGGGGSGGGGSDVVMTQTPLSLPVSLGDQASISCRSSQSLLHSNGNTYLHWYLQKPGQSPELLIYKVSNRFSGVPDRFSGSGSGTDFTLKISRVEAEDLGVYFCSQSTHVPLTFGAGTKLELKGSHHHHHHGSDYKDDDDK
notes: also called Antibody B scFv
Consider B1, for which, in test [1], the binding result is recorded as “binds”.

B2: anti-CRH antibody A (antibody, V domains shown)
VH: EVKLVESGGGLVKPGGSLKLSCAASGFTFSSYAMSWVRQTPEKRLEWVASISIGGSTYYRDSVKGRCTISRDNAKNILYLQMRSLRSEDTAMYYCARRGMDYWGQGTSVTVSS
VL: DIVITQDELSNPVTSGESVSISCRSSKSLLYKDGKTYLNWFLQRPGQSPQLLIYLMSTRASGVSDRFSGSGSGTDFTLEISRVKAEDVGVYYCQQLVEYPLTFGAGTKLELK
notes: Mouse monoclonal antibody raised with Peptide A (CRH 1-15)
In test [2], B2 registered a Kd below 0.001 nM.

B3: anti-CRH antibody B (antibody, V domains shown)
VH: EVQLQQSGPELVKPGVSMKISCKASGYSFTDSTMNWVKQSHGKNLEWIGLIHPDNGGTIYNQKFKGKATLTVHKSSSTAYMELLSLTSEDSAVYYCANGFAYWGQGTLVTVSA
VL: DVVMTQTPLSLPVSLGDQASISCRSSQSLLHSNGNTYLHWYLQKPGQSPELLIYKVSNRFSGVPDRFSGSGSGTDFTLKISRVEAEDLGVYFCSQSTHVPLTFGAGTKLELK
notes: Mouse monoclonal antibody raised with Peptide B (CRH 1-21), purified (QED bio); It was detected with anti-mouse IgG-HRP, and mouse IgG1 served as isotype control in vivo
In the case of B3, the Kd in test [2] stood at 20.9 nM. Besides, in test [3], the Kd is below 0.001 nM and the kon amounted to 97500 M⁻¹ s⁻¹. Besides, the koff in test [4] is below 1e-07 s⁻¹.

B4: ScFv comprising the heavy and light variable regions of Antibody A (scFv)
scFv: DGVQCEVKLVESGGGLVKPGGSLKLSCAASGFTFSSYAMSWVRQTPEKRLEWVASISIGGSTYYRDSVKGRCTISRDNAKNILYLQMRSLRSEDTAMYYCARRGMDYWGQGTSVTVSSGGGGSGGGGSGGGGSDIVITQDELSNPVTSGESVSISCRSSKSLLYKDGKTYLNWFLQRPGQSPQLLIYLMSTRASGVSDRFSGSGSGTDFTLEISRVKAEDVGVYYCQQLVEYPLTFGAGTKLELKRASGHHHHHHGSDYKDDDDK
notes: also called Antibody A scFv
As for B4, the binding result in test [1] is “binds”.

These data come from patent US20210371514A1 (UNIVERSITY OF FLORIDA RESEARCH FOUNDATION, published 2021).
